Data on three molecules can be found in patent publication US20240066142A1, “A UPAR (UROKINASE PLASMINOGEN ACTIVATOR RECEPTOR)-TARGETING CONJUGATE” (FLUOGUIDE A/S, priority 2021, published 2024).

Primed or numbered codes have the meaning given here. [ ]: non-standard residue; d: D form. Cha = N[C@@H](CC1CCCCC1)C(=O)O; IRDye800CW′ = not defined here; AEEA = NCCOCCOCC(=O)O

Assay [1] deals with human uPAR (Homo sapiens, UniProt Q03405). The assay is described as follows: SPR binding of conjugate or uPA to immobilized His-tagged recombinant human uPAR. The protocol: SPR was also applied to determine the KD-value of binding of the uPAR-binding conjugate to uPAR.
The uPAR-binding conjugates as well as the endogenous ligand uPA were analyzed in 2-fold dilution series from low to high concentration with a running buffer injection in between each injection. Injection of uPAR-binding conjugate or uPA (at a rate of 50 μL/minute) was performed for 120 seconds (association), and dissociation was assessed for 120 s (at a rate of 50 μL/minute). Running buffer was PBS supplemented with 0.01% Tween-20 and 50 μM EDTA).
Binding affinities were determined using the above described SPR-based approach, measuring binding affinities (KD) of the uPAR-targeting conjugates to immobilized human uPAR protein (the tumor target protein).
On the technique in general: SPR reads the build-up and loss of mass on a sensor chip optically.

Assay [2] deals with uPAR·uPA interaction (Homo sapiens, UniProt Q03405). The assay is described as follows: SPR competition: inhibition of the uPAR·uPA interaction (immobilized human uPA, 2.5 nM uPAR). In kind it is binding. The conditions noted are these: uPAR 2.5 nM pre-incubated 10 minutes with conjugate. The protocol:
Surface plasmon resonance (SPR) was applied to determine the IC50-value of uPAR-targeting conjugate for its ability to inhibit the uPAR·uPA interaction. In brief, human recombinant uPA, which is the natural ligand for uPAR, was immobilized to the SPR sensor chip. Binding of uPAR at a concentration of 2.5 nM in the absence of UPAR-binding conjugate was examined, followed by analyses of a fixed uPAR concentration (2.5 nM) incubated with a 2-fold dilution series of uPAR-binding conjugate pre-incubated for 10 minutes at room temperature prior to injection. uPAR injection (at a rate of 50 μL/minute) was performed for 300 s (association), and dissociation was assessed for 500 s (at a rate of 50 μL/minute). The uPAR/uPAR-binding conjugate complex was injected from low to high concentration with a regeneration step followed by a buffer injection in between each injection. Regeneration was performed for 20 s by injection of 0.5 M NaCl+0.1 M Acetic acid at a 30 μL/min flow rate, followed by running buffer wash (running buffer: PBS supplemented with 0.01% Tween-20 and 50 μM EDTA).
From this type of SPR analysis, the IC50 values for uPAR-targeting conjugates were determined.
The top signal represents uPAR binding in the absence of uPAR-targeting conjugate.

In assay [3] the target is human uPAR (urokinase Plasminogen Activator Receptor), in solution at 2.5 nM in the competition SPR assay (human) (UniProt Q03405). Description: SPR competition: 2.5 nM uPAR pre-incubated with dilution series of conjugate, injected over immobilised human uPA.
In assay [4] the target is recombinant human uPAR containing a His-tag (immobilized to a NTA chip) (human) (UniProt Q03405). Description: SPR, His-tagged human uPAR on NTA chip, steady-state responses.
recombinant human uPAR containing a His-tag (immobilized to a NTA chip) (human), sequence (Q03405 23-305 limits assumed): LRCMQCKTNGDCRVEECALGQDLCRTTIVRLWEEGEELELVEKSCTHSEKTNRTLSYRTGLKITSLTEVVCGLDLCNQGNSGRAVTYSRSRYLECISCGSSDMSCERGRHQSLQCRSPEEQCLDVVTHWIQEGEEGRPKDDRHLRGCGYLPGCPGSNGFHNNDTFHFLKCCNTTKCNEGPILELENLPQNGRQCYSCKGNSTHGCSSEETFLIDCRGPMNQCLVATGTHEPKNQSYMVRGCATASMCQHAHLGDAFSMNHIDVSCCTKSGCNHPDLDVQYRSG

uPAR·uPA interaction, sequence (Q03405 23-305): as the sequence (Q03405 23-305 limits assumed) above
human uPAR (urokinase Plasminogen Activator Receptor), in solution at 2.5 nM in the competition SPR assay (human), sequence (Q03405 23-305 limits assumed): as above

As to `CC(C)C[C@H](NC(=O)[C@H](Cc1ccc(O)cc1)NC(=O)[C@@H](CCCNC(=N)N)NC(=O)[C@@H](CO)NC(=O)[C@H](Cc1ccccc1)NC(=O)[C@H](CC1CCCCC1)NC(=O)[C@H](CC(=O)O)NC(=O)COCCOCCNC(=O)COCCOCCNC(=O)[C@H](CCC(=O)O)NC(=O)[C@H](CCC(=O)O)NC(=O)CCCCCN1C(=CC=C2CCCC(C=CC3=[N+](CCCCS(=O)(=O)[O-])c4ccc(S(=O)(=O)O)cc4C3(C)C)=C2Oc2ccc(S(=O)(=O)O)cc2)C(C)(C)c2cc(S(=O)(=O)O)ccc21)C(=O)N[C@@H](Cc1c[nH]c2ccccc12)C(=O)N[C@@H](CO)C(=O)O` [Compound example 2, IRDye800CW-EE-020c-020c-DChaFsrYLWS-OH], in assay [1] (on-rate binding), the kon (as a rule, a measure of how fast the partners come together) is at least 4.6e+06 M⁻¹ s⁻¹.
For the molecule “Compound example 1: uPAR-targeting conjugate based on the fluorophore ICG and the peptide AE105 (DXFSRYLWS; D-residues; non-natural residues; cyclised or stapled)”, in assay [1] (KD from steady state binding responses where Kon too fast), the Kd – broadly, the concentration at which binding is half-saturated – was found to be 2000 nM. The Kon in assay [1] (on-rate binding) was at least 4.6e+06 M⁻¹ s⁻¹. In assay [2], the IC50 (in general, the midpoint of a concentration-inhibition curve) was 7 nM.

B1: Compound example 2 (IRDye800CW-conjugated uPAR-targeting peptide, based on the fluorophore IRDye800CW and the peptide AE344) (peptide)
peptide: {IRDye800CW′}-EE[AEEA][AEEA]D[Cha]F[dS][dR]YLWS-OH
For B1, in assay [3], the IC50 was 24 nM. In assay [4], the Kd is 325 nM.
